Source: patent US20240307455A1, “COMPOSITIONS, DEVICES AND METHODS FOR TREATING IMMUNE-MEDIATED INFLAMMATORY DISEASES” (SIGILON THERAPEUTICS, INC., priority 2021, published 2024)

Legend:
[1] = in vivo; cited from earlier work
IL-22 = target: T1, IL-22 (Homo sapiens, UniProt Q9GZX6); experiment: Inhibition of IL22 activity in Col205 cells; format: cell-based; details: ARPE IL-22 supernatant 1%; rhIL22BP 100, 50, 25 and 1 ng/ml
T1 construct: made in house; host or cells: genetically modified ARPE-19 cells; filter-sterilized culture supernatant, not purified
T1 sequence (Q9GZX6 34-179): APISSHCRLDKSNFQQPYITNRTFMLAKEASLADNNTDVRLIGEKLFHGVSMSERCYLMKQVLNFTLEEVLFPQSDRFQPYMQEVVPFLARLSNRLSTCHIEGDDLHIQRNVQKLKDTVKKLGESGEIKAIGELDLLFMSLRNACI
Experimental: Inhibition of IL22 activity in Col205 cells. Col205 cells were seeded at a density of 2×10^5 cells/well in a 96 well plate and starved in serum free media overnight. The serum free media was removed and the cells were treated with 190 ul of recombinant human IL-22 binding protein (rhIL22BP) diluted in RPMI/10% FBS at concentrations of 100, 50, 25 and 1 ng/ml. Filter sterilized supernatant from hIL22-producing ARPE-19 cells (ARPE IL-22) or unmodified ARPE-19 cells (ARPE WT) was diluted 1:5 in RPMI/10% FBS and 10 ul was added to the wells for a final concentration of 1%. The plate was incubated overnight at 37 C, 5% CO2 for ˜18 h. The supernatant was transferred to a new 96 well plate and centrifuged.

Colo205 cells = experiment: Induction of IL-10 production by Colo205 cells (ELISA); format: cell-based, human; details: ~18 h incubation
Experimental: Balb-3T3 cells and ARPE-19 cells were genetically modified to express and secrete murine IL-22 and human IL-22, respectively. The ability of the genetically modified ARPE-19 cells to produce active hIL-22 in vitro was assessed by the induction of IL-10 production by Colo205 cells, which are derived from human colonic epithelium.
Generation of IL-22 response curve. Col205 cells were seeded at a density of 2×10^5 cells/well in a 96 well plate and starved in serum free media overnight. The serum free media was removed from the wells and the cells were treated with rhIL-22 (peprotech Cat #200-22) diluted in RPMI/10% FBS at half log dilutions to generate final concentrations of 1000, 316.46, 100.14, 31.69, 10.02, 3.17, 1 and 0.32 pg/ml. The plate was incubated overnight at 37 C, 5% CO2 for ˜18 h. The supernatant was transferred to a new 96 well plate and centrifuged.
Biological activity of hIL-22 produced by genetically modified ARPE-19 cells. Col205 cells were seeded at a density of 2×10^5 cells/well in a 96 well plate and starved in serum free media overnight. The serum free media was removed and the cells were treated with filter sterilized supernatant from hIL22 producing ARPE-19 cells (ARPE-19 IL-22) or unmodified ARPE-19 cells (ARPE-19 WT) diluted in RPMI/10% FBS at final concentrations of 1%, 0.5%, 0.25% and 0.125%. The plate was incubated overnight at 37 C, 5% CO2 for ˜18 h. […]

## human IL-10: human IL-10 protein in plasma
[1]
  half-life of human IL-10 in plasma: about 2 hours

B1: rhIL22BP: recombinant human IL-22 binding protein, an endogenous and specific IL-22 inhibitor (protein, UniProt Q969J5 22-263, looked up)
Interleukin-22 receptor …: TQSTHESLKPQRVQFQSRNFHNILQWQPGRALTGNSSVYFVQYKIMFSCSMKSSHQKPSGCWQHISCNFPGCRTLAKYGQRQWKNKEDCWGTQELSCDLTSETSDIQEPYYGRVRAASAGSYSEWSMTPRFTPWWETKIDPPVMNITQVNGSLLVILHAPNLPYRYQKEKNVSIEDYYELLYRVFIINNSLEKEQKVYEGAHRAVEIEALTPHSSYCVVAEIYQPMLDRRSQRSEERCVEIP
IL-22
  IL-10 production induced by hIL-22 in the presence of rhIL22BP: blocked

B2: rhIL-22: rhIL-22 (peprotech Cat #200-22) (protein, UniProt Q9GZX6 34-179, looked up)
Interleukin-22: APISSHCRLDKSNFQQPYITNRTFMLAKEASLADNNTDVRLIGEKLFHGVSMSERCYLMKQVLNFTLEEVLFPQSDRFQPYMQEVVPFLARLSNRLSTCHIEGDDLHIQRNVQKLKDTVKKLGESGEIKAIGELDLLFMSLRNACI
Colo205 cells
  IL-10 production by Colo205 cells: induced IL-10 production

B3: hIL-22: human IL-22 in filter sterilized supernatant from hIL22 producing genetically modified ARPE-19 cells (protein, UniProt Q9GZX6 34-179, looked up)
Interleukin-22: APISSHCRLDKSNFQQPYITNRTFMLAKEASLADNNTDVRLIGEKLFHGVSMSERCYLMKQVLNFTLEEVLFPQSDRFQPYMQEVVPFLARLSNRLSTCHIEGDDLHIQRNVQKLKDTVKKLGESGEIKAIGELDLLFMSLRNACI
Colo205 cells
  IL-10 production by Colo205 cells: functionally active
